B1: modified IL-18 polypeptide SEQ ID NO: 30 (E6K, V11I, C38A, K53A, T63A, C76A, C127A) (ligand)
chain: YFGKLKSKLSIIRNLNDQVLFIDQGNRPLFEDMTDSDARDNAPRTIFIISMYADSQPRGMAVAISVKCEKISTLSAENKIISFKEMNPPDNIKDTKSDIIFFQRSVPGHDNKMQFESSSYEGYFLAAEKERDLFKLILKKEDELGDRSIMFTVQNED
B2: modified IL-18 polypeptide SEQ ID NO: 205 (V11I, C38A, K53A, T63A, C76A, C127A) (ligand)
chain: B1 chain with K6E
B3: modified IL-18 polypeptide SEQ ID NO: 214 (V11I, D37A, C38A, K53A, C76A, C127A) (ligand)
chain: B1 chain with K6E, D37A, A63T
B4: modified IL-18 polypeptide SEQ ID NO: 211 (V11I, T34A, C38A, K53A, C76A, C127A) (ligand)
chain: B1 chain with K6E, T34A, A63T
B5: modified IL-18 polypeptide SEQ ID NO: 204 (V11I, C38A, K53A, C76A, C127A) (ligand)
chain: B1 chain with K6E, A63T
B6: modified IL-18 polypeptide SEQ ID NO: 206 (V11I, C38A, K53A, S55A, C76A, C127A) (ligand)
chain: B1 chain with K6E, S55A, A63T
B7: modified IL-18 polypeptide SEQ ID NO: 207 (V11I, C38A, M51G, K53A, C76A, C127A) (ligand)
chain: B1 chain with K6E, M51G, A63T
B8: modified IL-18 polypeptide SEQ ID NO: 213 (V11I, S36A, C38A, K53A, C76A, C127A) (ligand)
chain: B1 chain with K6E, S36A, A63T
B9: modified IL-18 polypeptide SEQ ID NO: 210 (V11I, E31A, C38A, K53A, C76A, C127A) (ligand)
chain: B1 chain with K6E, E31A, A63T
B10: modified IL-18 polypeptide SEQ ID NO: 215 (V11I, E31A, D37A, C38A, K53A, C76A, C127A) (ligand)
chain: B1 chain with K6E, E31A, D37A, A63T
B11: modified IL-18 polypeptide SEQ ID NO: 217 (V11I, C38A, N41A, K53A, C76A, C127A) (ligand)
chain: B1 chain with K6E, N41A, A63T
B12: modified IL-18 polypeptide SEQ ID NO: 209 (F2A, V11I, C38A, K53A, C76A, C127A) (ligand)
chain: B1 chain with F2A, K6E, A63T
B13: modified IL-18 polypeptide SEQ ID NO: 218 (V11I, C38A, K53A, C76A, C127A, D132A) (ligand)
chain: B1 chain with K6E, A63T, D132A
B14: modified IL-18 polypeptide SEQ ID NO: 212 (V11I, D35A, C38A, K53A, C76A, C127A) (ligand)
chain: B1 chain with K6E, D35A, A63T
B15: modified IL-18 polypeptide SEQ ID NO: 216 (V11I, C38A, D40A, K53A, C76A, C127A) (ligand)
chain: B1 chain with K6E, D40A, A63T
B16: modified IL-18 polypeptide SEQ ID NO: 208 (V11I, C38A, K53A, D54A, C76A, C127A) (ligand)
chain: B1 chain with K6E, D54A, A63T
B17: modified IL-18 polypeptide SEQ ID NO: 62 (E6K, C38A, K53A, C127A) (ligand)
chain: B1 chain with I11V, A63T, A76C
B18: modified IL-18 polypeptide SEQ ID NO: 59 (E6K, C38A, K53A) (ligand)
chain: B1 chain with I11V, A63T, A76C, A127C
B19: modified IL-18 polypeptide SEQ ID NO: 60 (E6K, C38Q, K53A) (ligand)
chain: B1 chain with I11V, A38Q, A63T, A76C, A127C
B20: modified IL-18 polypeptide SEQ ID NO: 61 (E6K, C38A, K53A, C76A) (ligand)
chain: B1 chain with I11V, A63T, A127C
B21: modified IL-18 polypeptide SEQ ID NO: 63 (E6K, C38A, K53A, C76A, C127A) (ligand)
chain: B1 chain with I11V, A63T

Where a chain is given by its changes, count along the chain named. In names and notes the source's numbering stands.

The target of the experiment is T1, IL-18 receptor on HEK-Blue IL18R reporter cells (UniProt Q13478 19-541; O95256 20-599, limits assumed).
T1 sequence (looked up) 1: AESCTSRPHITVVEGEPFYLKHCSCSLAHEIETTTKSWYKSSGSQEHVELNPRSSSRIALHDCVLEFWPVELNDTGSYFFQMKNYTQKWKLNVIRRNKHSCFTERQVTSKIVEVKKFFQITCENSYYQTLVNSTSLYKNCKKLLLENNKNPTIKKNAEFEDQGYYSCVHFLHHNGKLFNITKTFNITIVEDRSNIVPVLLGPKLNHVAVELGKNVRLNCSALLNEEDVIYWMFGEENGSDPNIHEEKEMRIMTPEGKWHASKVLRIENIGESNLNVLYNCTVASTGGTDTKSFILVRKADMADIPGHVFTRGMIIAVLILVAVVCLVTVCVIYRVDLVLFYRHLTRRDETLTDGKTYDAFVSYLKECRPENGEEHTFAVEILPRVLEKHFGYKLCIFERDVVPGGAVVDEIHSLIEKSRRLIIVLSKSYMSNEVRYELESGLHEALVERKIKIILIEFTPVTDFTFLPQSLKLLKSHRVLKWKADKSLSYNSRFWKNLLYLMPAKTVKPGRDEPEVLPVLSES
T1 sequence (looked up) 2: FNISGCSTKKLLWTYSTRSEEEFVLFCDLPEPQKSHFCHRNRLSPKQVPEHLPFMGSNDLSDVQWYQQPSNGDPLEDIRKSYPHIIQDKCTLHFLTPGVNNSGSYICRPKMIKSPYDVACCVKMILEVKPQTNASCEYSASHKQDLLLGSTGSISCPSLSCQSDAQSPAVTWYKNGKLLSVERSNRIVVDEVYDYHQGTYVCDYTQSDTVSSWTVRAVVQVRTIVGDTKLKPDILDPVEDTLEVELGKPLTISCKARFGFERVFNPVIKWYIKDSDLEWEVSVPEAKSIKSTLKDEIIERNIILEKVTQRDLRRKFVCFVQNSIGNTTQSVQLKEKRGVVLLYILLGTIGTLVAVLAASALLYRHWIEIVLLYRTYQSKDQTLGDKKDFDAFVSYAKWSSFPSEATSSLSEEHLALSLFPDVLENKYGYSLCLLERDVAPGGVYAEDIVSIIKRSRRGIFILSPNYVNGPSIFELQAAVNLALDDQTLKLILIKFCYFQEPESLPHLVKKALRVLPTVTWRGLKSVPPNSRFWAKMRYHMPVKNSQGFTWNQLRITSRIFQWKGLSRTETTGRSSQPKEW
As to the kind of experiment: cell-based or functional assay.
Take B1: the “EC50, HEK-Blue IL18R reporter (SEAP)” value stood at 0.053 nM.

Consider B2, for which the “EC50, HEK-Blue IL18R reporter (SEAP)” value came to 0.17 nM.

In the case of B3, the “EC50, HEK-Blue IL18R reporter (SEAP)” value amounted to 14.1 nM.

As for B4, the “EC50, HEK-Blue IL18R reporter (SEAP)” value came to 0.7 nM.

B5: the “EC50, HEK-Blue IL18R reporter (SEAP)” value stood at 0.98 nM.

As for B6, the “EC50, HEK-Blue IL18R reporter (SEAP)” value turned out to be 3.63 nM.

Regarding B7, the “EC50, HEK-Blue IL18R reporter (SEAP)” value was 0.8 nM.

Consider B8, for which the “EC50, HEK-Blue IL18R reporter (SEAP)” value turned out to be 0.25 nM.

Regarding B9, the “EC50, HEK-Blue IL18R reporter (SEAP)” value came to 6.6 nM.

With B10, the “EC50, HEK-Blue IL18R reporter (SEAP)” value came to 11.9 nM.

Consider B11, for which the “EC50, HEK-Blue IL18R reporter (SEAP)” value was 11.7 nM.

As to B12, the “EC50, HEK-Blue IL18R reporter (SEAP)” value was found to be 7.28 nM.

Turning to B13, the “EC50, HEK-Blue IL18R reporter (SEAP)” value is 1.95 nM.

For B14, the “EC50, HEK-Blue IL18R reporter (SEAP)” value was determined as 13.1 nM.

For B15, the “EC50, HEK-Blue IL18R reporter (SEAP)” value came out at 0.52 nM.

For the molecule B16, the “EC50, HEK-Blue IL18R reporter (SEAP)” value stood at 1 nM.

For the molecule B17, the “EC50, HEK-Blue IL18R reporter (SEAP)” value was determined as 0.17 nM.

In the case of B18, the “EC50, HEK-Blue IL18R reporter (SEAP)” value is 0.268 nM.

B19: the “EC50, HEK-Blue IL18R reporter (SEAP)” value is 0.203 nM.

Consider B20, for which the “EC50, HEK-Blue IL18R reporter (SEAP)” value came out at 0.084 nM.

Regarding B21, the “EC50, HEK-Blue IL18R reporter (SEAP)” value is 0.0139 nM.

Values taken from US20230357342A1 (published 2023).
